Reference: patent WO2012132067A1 (dated 2012)
Changes are numbered by the printed parent chain. Numbers in names are those of the source.

T1: mouse FcγRIIb (mouse, UniProt P08101 30-210, limits assumed)
T1 sequence (looked up): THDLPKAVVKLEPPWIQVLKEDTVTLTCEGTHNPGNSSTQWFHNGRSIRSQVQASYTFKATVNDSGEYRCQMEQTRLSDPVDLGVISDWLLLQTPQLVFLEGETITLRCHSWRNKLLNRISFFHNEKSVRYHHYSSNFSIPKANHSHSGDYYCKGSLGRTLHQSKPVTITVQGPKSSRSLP

T2: mouse FcγRIII (mouse, UniProt P08508 31-215)
T2 sequence (looked up): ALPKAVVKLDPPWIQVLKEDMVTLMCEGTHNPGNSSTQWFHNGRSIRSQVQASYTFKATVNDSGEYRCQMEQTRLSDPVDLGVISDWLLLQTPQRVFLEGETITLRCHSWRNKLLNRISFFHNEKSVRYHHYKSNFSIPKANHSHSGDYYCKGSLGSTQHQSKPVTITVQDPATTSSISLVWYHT

B1: VH3/L(WT)-IgG1-F140 (antibody)
heavy: QVQLQESGPGLVKPSETLSLTCAVSGHSISHDHAWSWVRQPPGEGLEWIGFISYSGITNYNPSLQGRVTISRDNSKNTLYLQMNSLRAEDTAVYYCARSLARTTAMDYWGEGTLVTVSSASTKGPSVFPLAPSSKSTSGGTAALGCLVKDYFPEPVTVSWNSGALTSGVHTFPAVLQSSGLYSLSSVVTVPSSSLGTQTYICNVNHKPSNTKVDKKVEPKSCDKTHTCPPCPAPELLGGPKVFLFPPKPKDTLYISRTPEVTCVVVDVSHEDPEVKFNWYVDGVEVHNAKTKPREEQYNSTYRVVSVLTPLHQDWLNGKEYKCKVSNKALPAPIEKTISKAKGQPREPQVYTLPPSRDELTKNQVSLTCLVKGFYPSDIAVEWESNGQPENNYKTTPPVLDSDGSFFLYSKLTVDKSRWQQGNVFSCSVMHEALHYHYTQKSLSLSP
light: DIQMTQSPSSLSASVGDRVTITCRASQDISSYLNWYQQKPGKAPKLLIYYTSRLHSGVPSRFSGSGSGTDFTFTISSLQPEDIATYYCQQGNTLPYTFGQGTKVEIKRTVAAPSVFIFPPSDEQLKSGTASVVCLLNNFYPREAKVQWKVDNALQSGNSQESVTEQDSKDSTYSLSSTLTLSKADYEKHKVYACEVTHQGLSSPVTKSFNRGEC
notes: VH3-IgG1-F21 with S239K (EU); measured with L(WT)-CK; also called Fv4-IgG1-F140; copies: 2 + 2
B2: VH3/L(WT)-IgG1-F424 (antibody)
heavy: B1 heavy with Y254M, P259A, M430L
light: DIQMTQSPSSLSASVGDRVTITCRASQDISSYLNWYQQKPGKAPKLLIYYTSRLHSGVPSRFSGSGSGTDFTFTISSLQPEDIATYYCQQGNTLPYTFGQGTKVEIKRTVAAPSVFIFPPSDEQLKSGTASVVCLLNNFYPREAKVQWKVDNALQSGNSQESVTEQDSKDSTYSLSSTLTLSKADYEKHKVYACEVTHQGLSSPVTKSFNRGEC
notes: VH3-IgG1-F157 with S239K (EU); measured with L(WT)-CK; also called Fv4-IgG1-F424; copies: 2 + 2

Columns and labels:
human FcγRIa = biological target: T3, human FcγRIa (human, UniProt P12314 16-292, limits assumed); test: Biacore, Protein L capture, human FcγR injected, pH 7.4, 25 C (Table 13 not given)
T3 construct: also called hFcgRI; hFcγRIa

mouse FcγRIIb [1] = biological target: T1, mouse FcγRIIb; test: Biacore, Protein L capture, mouse FcγR injected, pH 7.4, 25 C (Table 7 not given); weaker than F21
mouse FcγRIII = biological target: T2, mouse FcγRIII; test: as above
mouse FcγRIIb [2] = biological target: T1, mouse FcγRIIb; test: Biacore, Protein L capture, mouse FcγR injected, pH 7.4, 25 C (Table 7 not given); weaker than F157

T3 sequence (P12314 16-292 limits assumed): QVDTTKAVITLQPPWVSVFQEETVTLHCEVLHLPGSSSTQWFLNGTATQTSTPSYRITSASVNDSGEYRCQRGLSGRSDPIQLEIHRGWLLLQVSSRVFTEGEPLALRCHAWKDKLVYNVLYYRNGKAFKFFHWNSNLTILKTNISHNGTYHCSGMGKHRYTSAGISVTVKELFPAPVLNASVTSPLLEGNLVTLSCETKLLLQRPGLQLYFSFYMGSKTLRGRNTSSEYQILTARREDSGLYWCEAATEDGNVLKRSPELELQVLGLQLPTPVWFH

Binder	binding result (human FcγRIa)	binding result (mouse FcγRIIb [1])	binding result (mouse FcγRIII)	binding result (mouse FcγRIIb [2])
B1	binds	binds	binds	–
B2	–	–	–	binds
